# From US9751918B2, “Transgenic plants expressing cobalamin binding proteins” (XERAGENX LLC, priority 2001, dated 2017)
# Columns and labels:
# [1] = Competitive binding of 57Co-labelled cobalamin versus unlabelled cobalamin; conditions: 57Co-cobalamin mixed with increasing non-radioactive cobalamin, bound fraction by gamma counter
# Method: (§1) Equal amounts of the respective proteins were added to a mixture containing a fixed amount of cobalt (57Co) labelled cobalamin mixed with increasing amounts of non-radioactive cobalamin or cobinamide (X axis). Free and bound ligand were separated and the amount of 57Co attached to the protein was measured in a gamma counter. The 57Co fraction bound relative to the amount of 57Co bound in the absence of unlabeled cobalamin or cobinamide was calculated (Y axis).
# as §1, with “Both recombinant proteins were extracted form transgenic Arabidopsis thaliana plants. Equal” for “Equal”, “(57Co) labeled” for “(57Co) labelled”, “of nonradioactive” for “of non-radioactive”, “ligand was” for “ligand were”, “of unlabelled” for “of unlabeled”
# (§2) One kilogram of three week old IF-plants was homogenization with 2 liters of phosphate buffer and clarified by centrifugation. This extract contained 100 mg recombinant human IF with CBC. This IF had specificity for cobalamin binding whereas the analog cobinamid was not bound by the IF as tested by the method described by (15).
# [2] = Competitive binding of 57Co-labelled cobalamin versus unlabelled cobinamide; conditions: 57Co-cobalamin mixed with increasing non-radioactive cobinamide; bound fraction by gamma counter
# Method: as §1
# as §1, with “Both recombinant proteins were extracted form transgenic Arabidopsis thaliana plants. Equal” for “Equal”, “(57Co) labeled” for “(57Co) labelled”, “of nonradioactive” for “of non-radioactive”, “ligand was” for “ligand were”, “of unlabelled” for “of unlabeled”
# as §2
# [3] = molecular target: human intestinal receptor protein cubilin (Homo sapiens, UniProt O60494); assay: BIAcore 2000 binding of intrinsic factor to immobilized cubilin; conditions: for binding to cubilin, holo-form: intrinsic factor saturated with vitamin B12 (holo-form); for binding to cubilin, apo-form: intrinsic factor unsaturated with vitamin B12 (apo-form)
# Method: The binding between intrinsic factor and its receptor cubilin was analysed employing a BIAcore 2000 instrument (Biacore AB, Uppsala, Sweden). An increase in Resp. Diff. (Y axis) indicates binding between intrinsic factor and cubilin. At time approximately 100 a solution with intrinsic factor is added to the immobilized cubilin. Intrinsic factor was isolated from transgenic plants, human gastric juice and hog stomach. Preparations of vitamin B 12 saturated and vitamin B12 unsaturated intrinsic factor were used. At time approximately 600 intrinsic factor is removed from the solution and the dissociation between cubilin and intrinsic factor is followed.
# [4] = listed as native intrinsic factor
# [5] = listed as recombinant intrinsic factor
# human intestinal receptor protein cubilin, sequence (O60494 36-3623): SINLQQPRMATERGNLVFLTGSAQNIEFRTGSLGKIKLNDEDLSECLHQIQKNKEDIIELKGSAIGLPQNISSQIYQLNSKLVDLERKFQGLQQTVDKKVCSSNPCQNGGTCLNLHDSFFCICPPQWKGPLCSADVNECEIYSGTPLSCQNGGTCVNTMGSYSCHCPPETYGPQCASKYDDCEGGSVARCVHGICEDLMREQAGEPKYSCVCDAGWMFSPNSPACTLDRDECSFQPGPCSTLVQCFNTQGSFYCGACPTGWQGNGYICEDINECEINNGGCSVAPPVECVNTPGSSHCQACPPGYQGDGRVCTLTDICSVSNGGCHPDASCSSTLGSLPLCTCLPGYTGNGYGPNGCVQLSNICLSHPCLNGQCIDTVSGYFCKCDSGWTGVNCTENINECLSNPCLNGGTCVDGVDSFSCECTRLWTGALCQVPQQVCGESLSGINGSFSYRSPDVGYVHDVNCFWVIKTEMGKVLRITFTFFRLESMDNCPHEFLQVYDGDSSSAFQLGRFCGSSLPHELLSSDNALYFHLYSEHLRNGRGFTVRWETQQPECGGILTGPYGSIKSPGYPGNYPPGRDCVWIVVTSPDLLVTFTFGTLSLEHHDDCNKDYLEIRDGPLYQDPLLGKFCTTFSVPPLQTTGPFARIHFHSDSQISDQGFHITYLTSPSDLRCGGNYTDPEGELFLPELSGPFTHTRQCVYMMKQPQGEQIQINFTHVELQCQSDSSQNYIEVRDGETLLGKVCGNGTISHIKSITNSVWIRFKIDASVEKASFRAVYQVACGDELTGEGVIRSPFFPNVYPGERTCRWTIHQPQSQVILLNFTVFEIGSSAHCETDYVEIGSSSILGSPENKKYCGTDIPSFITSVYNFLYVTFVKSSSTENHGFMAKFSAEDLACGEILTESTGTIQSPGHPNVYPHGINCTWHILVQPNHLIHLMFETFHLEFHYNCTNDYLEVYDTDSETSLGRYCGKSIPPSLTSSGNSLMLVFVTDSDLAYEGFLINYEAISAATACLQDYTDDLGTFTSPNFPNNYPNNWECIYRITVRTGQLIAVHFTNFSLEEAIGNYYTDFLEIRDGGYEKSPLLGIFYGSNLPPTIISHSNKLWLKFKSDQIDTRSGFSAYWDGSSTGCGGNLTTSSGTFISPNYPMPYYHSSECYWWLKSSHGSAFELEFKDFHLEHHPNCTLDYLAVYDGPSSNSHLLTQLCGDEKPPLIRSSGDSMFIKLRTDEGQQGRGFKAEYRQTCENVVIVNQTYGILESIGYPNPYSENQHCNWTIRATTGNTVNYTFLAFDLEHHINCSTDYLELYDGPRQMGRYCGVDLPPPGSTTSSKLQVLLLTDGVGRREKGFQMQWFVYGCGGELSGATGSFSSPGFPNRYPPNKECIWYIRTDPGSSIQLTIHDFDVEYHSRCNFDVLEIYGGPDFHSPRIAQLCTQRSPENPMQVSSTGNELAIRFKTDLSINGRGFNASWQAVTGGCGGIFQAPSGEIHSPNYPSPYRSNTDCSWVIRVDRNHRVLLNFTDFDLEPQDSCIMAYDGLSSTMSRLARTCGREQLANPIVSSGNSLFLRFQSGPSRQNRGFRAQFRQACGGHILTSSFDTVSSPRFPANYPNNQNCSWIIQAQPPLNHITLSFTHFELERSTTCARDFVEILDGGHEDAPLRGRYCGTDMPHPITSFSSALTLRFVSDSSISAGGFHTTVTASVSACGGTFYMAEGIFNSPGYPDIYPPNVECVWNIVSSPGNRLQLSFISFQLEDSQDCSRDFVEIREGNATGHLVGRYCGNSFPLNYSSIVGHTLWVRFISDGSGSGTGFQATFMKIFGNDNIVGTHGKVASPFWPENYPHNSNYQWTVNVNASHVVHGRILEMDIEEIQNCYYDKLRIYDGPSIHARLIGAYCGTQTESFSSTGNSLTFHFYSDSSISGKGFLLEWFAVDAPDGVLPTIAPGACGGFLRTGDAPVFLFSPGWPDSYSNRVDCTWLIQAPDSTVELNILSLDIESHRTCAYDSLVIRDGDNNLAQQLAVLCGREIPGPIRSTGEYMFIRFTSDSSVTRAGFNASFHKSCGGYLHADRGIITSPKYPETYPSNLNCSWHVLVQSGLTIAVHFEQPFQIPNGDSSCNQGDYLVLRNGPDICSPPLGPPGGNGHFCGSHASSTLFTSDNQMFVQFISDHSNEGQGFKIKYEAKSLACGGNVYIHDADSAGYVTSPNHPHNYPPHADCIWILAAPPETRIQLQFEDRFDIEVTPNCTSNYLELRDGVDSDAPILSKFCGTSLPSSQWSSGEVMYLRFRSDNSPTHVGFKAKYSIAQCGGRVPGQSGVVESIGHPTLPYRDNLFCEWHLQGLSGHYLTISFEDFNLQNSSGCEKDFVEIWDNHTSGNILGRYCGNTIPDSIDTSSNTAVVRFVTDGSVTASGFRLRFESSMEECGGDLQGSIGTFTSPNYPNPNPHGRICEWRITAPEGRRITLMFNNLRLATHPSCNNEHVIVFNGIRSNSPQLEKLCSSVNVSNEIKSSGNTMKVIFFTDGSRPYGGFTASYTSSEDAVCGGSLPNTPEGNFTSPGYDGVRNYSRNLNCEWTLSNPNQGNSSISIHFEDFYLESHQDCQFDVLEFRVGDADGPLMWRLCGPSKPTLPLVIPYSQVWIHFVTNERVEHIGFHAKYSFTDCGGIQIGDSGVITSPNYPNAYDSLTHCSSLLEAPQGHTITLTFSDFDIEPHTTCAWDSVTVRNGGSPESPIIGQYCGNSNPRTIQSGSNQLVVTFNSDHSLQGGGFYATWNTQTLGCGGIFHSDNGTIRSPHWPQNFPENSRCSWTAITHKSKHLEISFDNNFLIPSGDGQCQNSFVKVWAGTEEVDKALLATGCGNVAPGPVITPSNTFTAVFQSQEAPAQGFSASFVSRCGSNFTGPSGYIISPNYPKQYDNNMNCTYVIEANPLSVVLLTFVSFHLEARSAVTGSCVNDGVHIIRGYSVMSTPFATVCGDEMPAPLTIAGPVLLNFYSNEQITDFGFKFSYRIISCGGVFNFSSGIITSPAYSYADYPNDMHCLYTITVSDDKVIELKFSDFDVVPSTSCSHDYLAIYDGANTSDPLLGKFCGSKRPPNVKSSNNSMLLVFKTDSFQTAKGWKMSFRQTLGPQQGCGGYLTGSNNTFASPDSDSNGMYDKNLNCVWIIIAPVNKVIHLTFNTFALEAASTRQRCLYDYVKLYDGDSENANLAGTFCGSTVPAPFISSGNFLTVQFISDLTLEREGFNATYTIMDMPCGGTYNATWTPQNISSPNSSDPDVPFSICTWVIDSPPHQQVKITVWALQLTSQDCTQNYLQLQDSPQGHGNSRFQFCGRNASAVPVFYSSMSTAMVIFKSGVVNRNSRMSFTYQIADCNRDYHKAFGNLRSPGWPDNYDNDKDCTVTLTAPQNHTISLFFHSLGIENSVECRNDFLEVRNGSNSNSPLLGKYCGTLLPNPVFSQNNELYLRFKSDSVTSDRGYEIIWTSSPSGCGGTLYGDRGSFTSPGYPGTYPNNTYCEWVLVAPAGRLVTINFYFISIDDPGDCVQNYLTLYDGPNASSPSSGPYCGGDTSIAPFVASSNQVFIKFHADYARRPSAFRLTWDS
# human intestinal receptor protein cubilin, sequence (P27352 19-417 partner): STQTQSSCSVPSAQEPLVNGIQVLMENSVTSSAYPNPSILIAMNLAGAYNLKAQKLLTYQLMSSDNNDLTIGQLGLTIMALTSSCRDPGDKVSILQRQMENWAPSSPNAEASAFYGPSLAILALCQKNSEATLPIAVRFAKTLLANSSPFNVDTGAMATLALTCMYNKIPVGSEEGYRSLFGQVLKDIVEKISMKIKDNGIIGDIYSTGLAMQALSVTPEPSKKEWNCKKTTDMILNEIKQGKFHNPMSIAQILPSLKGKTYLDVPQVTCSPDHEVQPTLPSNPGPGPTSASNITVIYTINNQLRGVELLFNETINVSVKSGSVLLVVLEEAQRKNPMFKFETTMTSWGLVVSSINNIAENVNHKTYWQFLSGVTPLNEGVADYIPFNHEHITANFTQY
ability to bind cobalamin [1],ability to bind cobalamin ([1]; listed as native IF),ability to bind cobinamid [2],"binding to cubilin, holo-form ([3]; listed as human gastric IF)","binding to cubilin, holo-form [3, 4]","binding to cubilin, apo-form ([3]; listed as human gastric IF)","binding to cubilin, apo-form [3, 4]",ability to bind cobalamin ([1]; listed as recombinant IF),ability to bind cobalamin ([1]; listed as recombinant human intrinsic factor),"binding to cubilin, holo-form [3]","binding to cubilin, holo-form [3, 5]","binding to cubilin, apo-form [3]","binding to cubilin, apo-form [3, 5]",ability to bind cobalamin ([1]; listed as recombinant human transcobalamin),Molecule
specificity for binding Cbl,specificity for binding cobalamin,not cobinamid,bind to the cubulin receptor,binds to cubilin,only when in holo-form,only when saturated with vitamin B12,–,–,–,–,–,–,–,"native human gastric IF: Native intrinsic factor present in / isolated from human gastric juice, used for comparison [reference compound]"
specificity for binding Cbl,–,not cobinamid,–,–,–,–,specificity for binding cobalamin,bind cobalamin,binds,binds to cubilin,does not bind,only when saturated with vitamin B12,–,rhIF from plants: Recombinant human intrinsic factor extracted from transgenic Arabidopsis thaliana plants (mature sequence SEQ ID NO:4)
binds to Cbl,–,not cobinamid,–,–,–,–,–,–,–,–,–,–,bind cobalamin,"rhTC: Recombinant human transcobalamin extracted from transgenic Arabidopsis thaliana plants (mature sequence SEQ ID NO:11) (protein, plant-expressed; homo sapiens) EMCEIPEMDSHLVEKLGQHLLPWMDRLSLEHLNPSIYVGLRLSSLQAGTKEDLYLHSLKLGYQQCLLGSAFSEDDGDCQGKPSMGQLALYLLALRANCEFVRGHKGDRLVSQLKWFLEDEKRAIGHDHKGHPHTSYYQYGLGILALCLHQKRVHDSVVDKLLYAVEPFHQGHHSVDTAAMAGLAFTCLKRSNFNPGRRQRITMAIRTVREEILKAQTPEGHFGNVYSTPLALQFLMTSPMPGAELGTACLKARVALLASLQDGAFQNALMISQLLPVLNHKTYIDLIFPDCLAPRVMLEPAAETIPQTQEIISVTLQVLSLLPPYRQSISVLAGSTVEDVLKKAHELGGFTYETQASLSGPYLTSVMGKAAGEREFWQLLRDPNTPLLQGIADYRPKDGETIELRLVSW"
